From US20020151484A1 (HYBRIGENICS, published 2002)

What was measured:
Test in all cases: yeast two-hybrid, mating, His3/LacZ reporters
[1] = molecular target: T1, SID polypeptide of SEQ ID No 8, NS4A (59%)/NS4B (40%), HCV strain H77 nt 5375-5542 (hepatitis C virus strain H77, UniProt P27958 1679-1732)
T1 construct: Intersection of yeast two-hybrid prey fragments; also called SID NS4A (59%)/NS4B (40%)
T1 sequence: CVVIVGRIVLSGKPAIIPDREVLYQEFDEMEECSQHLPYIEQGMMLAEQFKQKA

[2] = molecular target: T2, Bait polypeptide of SEQ ID No 80, E1 (4%)/E2 (95%), HCV strain H77 nt 1478-1756 (hepatitis C virus strain H77, UniProt P27958 380-470)
T2 construct: also called Bait E1 (4%)/E2 (95%)

[3] = molecular target: T3, SID polypeptide of SEQ ID No 30, NS4B (100%), HCV strain H77 nt 6029-6194 (hepatitis C virus strain H77, UniProt P26664 1897-1950)
T3 construct: Intersection of yeast two-hybrid prey fragments; also called SID NS4B (100%)
T3 sequence: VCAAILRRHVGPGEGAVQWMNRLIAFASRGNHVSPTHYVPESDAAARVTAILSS

[4] = molecular target: T4, SID polypeptide of SEQ ID No 31, NS5B (100%), HCV strain H77 nt 8354-8665 (hepatitis C virus strain H77, UniProt P26664 2672-2773)
T4 construct: Intersection of yeast two-hybrid prey fragments; also called SID NS5B (100%)

[5] = molecular target: T5, Bait polypeptide of SEQ ID No 107, NS5B (100%), HCV strain H77 nt 7838-8743 (hepatitis C virus strain H77, UniProt P26664 2500-2799)
T5 construct: also called Bait NS5B (100%)

[6] = molecular target: T6, SID polypeptide of SEQ ID No 33, NS3 (100%), HCV strain H77 nt 4715-4901 (hepatitis C virus strain H77, UniProt P27958 1459-1519)
T6 construct: Intersection of yeast two-hybrid prey fragments; also called SID NS3 (100%)
T6 sequence: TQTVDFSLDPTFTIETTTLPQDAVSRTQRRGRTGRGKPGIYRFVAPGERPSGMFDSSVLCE

[7] = molecular target: T7, SID polypeptide of SEQ ID No 29, NS3 (100%), HCV strain H77 nt 4451-4790 (hepatitis C virus strain H77, UniProt P27958 1371-1482)
T7 construct: Intersection of yeast two-hybrid prey fragments; also called SID NS3 (100%)
T7 sequence: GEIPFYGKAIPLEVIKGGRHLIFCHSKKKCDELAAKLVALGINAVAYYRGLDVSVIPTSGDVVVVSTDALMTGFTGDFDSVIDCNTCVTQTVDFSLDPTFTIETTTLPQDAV

[8] = molecular target: T8, Bait polypeptide of SEQ ID No 109, NS5B (100%), HCV strain H77 nt 7976-8759 (hepatitis C virus strain H77, UniProt P26664 2546-2805)
T8 construct: also called Bait NS5B (100%)

[9] = molecular target: T9, Bait polypeptide of SEQ ID No 79, E1 (100%), HCV strain H77 nt 995-1342 (hepatitis C virus strain H77, UniProt P27958 219-332)
T9 construct: also called Bait E1 (100%)
T9 chain: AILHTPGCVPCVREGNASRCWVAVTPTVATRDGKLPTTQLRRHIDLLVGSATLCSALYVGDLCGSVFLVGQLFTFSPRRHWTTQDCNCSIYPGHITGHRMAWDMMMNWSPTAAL

[10] = molecular target: T10, Bait polypeptide of SEQ ID No 112, NS5B (100%), HCV strain H77 nt 8996-9220 (hepatitis C virus strain H77, UniProt Q03463 2886-2958)
T10 construct: also called Bait NS5B (100%)

[11] = molecular target: T11, Bait polypeptide of SEQ ID No 84, NS3 (100%), HCV strain H77 nt 3767-4244 (hepatitis C virus strain H77, UniProt P27958 1143-1300)
T11 construct: also called Bait NS3 (100%)
T11 chain: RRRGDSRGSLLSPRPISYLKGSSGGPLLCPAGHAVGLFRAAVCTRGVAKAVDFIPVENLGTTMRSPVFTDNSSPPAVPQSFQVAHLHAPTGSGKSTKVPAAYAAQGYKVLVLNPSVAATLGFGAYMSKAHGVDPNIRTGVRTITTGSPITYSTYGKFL

[12] = molecular target: T12, Bait polypeptide of SEQ ID No 111, NS5B (100%), HCV strain H77 nt 8708-8978 (hepatitis C virus strain H77, UniProt P27958 2790-2878)
T12 construct: also called Bait NS5B (100%)

B1: Bait polypeptide of SEQ ID No 83, NS2 (12%)/NS3 (87%), HCV strain H77 nt 3312-4150 (other)
chain: AACGDIINGLPVSARRGQEILLGPADGMVSKGWRLLAPITAYAQQTRGLLGCIITSLTGRDKNQVEGEVQIVSTATQTFLATCINGVCWTVYHGAGTRTIASPKGPVIQMYTNVDQDLVGWPAPQGSRSLTPCTCGSSDLYLVTRHADVIPVRRRGDSRGSLLSPRPISYLKGSSGGPLLCPAGHAVGLFRAAVCTRGVAKAVDFIPVENLGTTMRSPVFTDNSSPPAVPQSFQVAHLHAPTGSGKSTKVPAAYAAQGYKVLVLNPSVAATLGFGAYM
notes: also called Bait NS2 (12%)/NS3 (87%)
B1: binds [1].

B2: SID polypeptide of SEQ ID No 5, NS3 (100%), HCV strain H77 nt 4787-5242 (other)
chain: SRTQRRGRTGRGKPGIYRFVAPGERPSGMFDSSVLCECYDAGCAWYELTPAETTVRLRAYMNTPGLPVCQDHLEFWEGVFTGLTHIDAHFLSQTKQSGENFPYLVAYQATVCARAQAPPPSWDQMWKCLIRLKPTLHGPTPLLYRLGAVQ
notes: Intersection of yeast two-hybrid prey fragments; also called SID NS3 (100%)
B2: binds [2].

B3: Bait polypeptide of SEQ ID No 105, NS5A (100%), HCV strain H77 nt 7274-7549 (other)
chain: HGCPLPPPRSPPVPPPRKKRTVVLTESTLSTALAELATKSFGSSSTSGITGDNTTTSSEPAPSGCPPDSDVESYSSMPPLEGEPGDPDLS
notes: also called Bait NS5A (100%)
B3: binds [3].

B4: Bait polypeptide of SEQ ID No 106, NS5B (100%), HCV strain H77 nt 7613-8027 (other)
chain: not shown
notes: also called Bait NS5B (100%)
B4: binds [4].

B5: SID polypeptide of SEQ ID No 32, NS5B (100%), HCV strain H77 nt 7769-8011 (other)
chain: not shown
notes: Intersection of yeast two-hybrid prey fragments; also called SID NS5B (100%)
B5: binds [5].

B6: Bait polypeptide of SEQ ID No 108, NS5B (100%), HCV strain H77 nt 7856-8458 (other)
chain: not shown
notes: also called Bait NS5B (100%)
B6: binds [6].

B7: Bait polypeptide of SEQ ID No 104, NS5A (100%), HCV strain H77 nt 7019-7249 (other)
chain: IEANLLWRQEMGGNITRVESENKVVILDSFDPLVAEEDEREVSVPAEILRKSRRFARALPVWARPDYNPPLVETW
notes: also called Bait NS5A (100%)
B7: binds [7].

B8: SID polypeptide of SEQ ID No 34, NS5B (100%), HCV strain H77 nt 7775-8011 (other)
chain: not shown
notes: as for B5
B8: binds [8].

B9: SID polypeptide of SEQ ID No 4, E2 (100%), HCV strain H77 nt 1871-1987 (other)
chain: PSPVVVGTTDRSGAPTYSWGANDTDVFVLNNTRPPLG
notes: Intersection of yeast two-hybrid prey fragments; also called SID E2 (100%)
B9: binds [9].

B10: SID polypeptide of SEQ ID No 37, NS4B (57%)/NS5A(41%), HCV strain H77 nt 6194-6303 (other)
chain: TVTQLLRRLHQWISSECTTPCSGSWLRDIWDWICE
notes: Intersection of yeast two-hybrid prey fragments; also called SID NS4B (57%)/NS5A(41%)
B10: binds [10].

B11: SID polypeptide of SEQ ID No 9, NS3 (100%), HCV strain H77 nt 4676-4801 (other)
chain: GDFDSVIDCNTCVTQTVDFSLDPTFTIETTTLPQDAVSRT
notes: as for B2
B11: binds [11].

B12: SID polypeptide of SEQ ID No 36, E2 (100%), HCV strain H77 nt 1751-1865 (other)
chain: PISYANGSGLDERPYCWHYPPRPCGIVPAKSVCGPVY
notes: as for B9
B12: binds [12].
